Assay results: patent US20250263490A1 (VIB VZW, published 2025)

Key:
[1] = target: T1, recombinant mouse domain 1-3His6 of CI-M6PR (mouse, UniProt Q07113 36-418); experiment: ELISA: coated mouse CI-M6PR Domain 1-3His6, serially diluted VHH, anti-VHH-HRP, TMB, Abs 450 nm; sigmoidal regression [table at the right]
T1 construct: Genbank NM_010515.2); Range includes the signal peptide; also called mDom1-3His6; mCI-M6PRD1-D3
Protocol: FIGS. 5A-5B. Affinity of anti-CI-M6PR VHHs for recombinant mouse CI-M6PR Domain 1-3His₆ determined by ELISA. (FIG. 5A) Measurement for each of the 11 anti-CI-M6PR VHHs in serial dilution binding to the coated mouse antigen. Detection was performed using an anti-VHH antibody coupled to HRP, and measured as the absorbance of the TMB substrate at 450 nm, correlating to the amount of bound VHH as plotted at the Y-axis. The Log₁₀ concentrations of the serially diluted VHHs were plotted at the X-axis.
To evaluate the cross-reactivity of the anti-CI-M6PR nanobodies between the human and mouse CI-M6PR domain 1-3His₆ antigen, ELISA was performed with the eleven serially diluted anti-CI-M6PR nanobodies. […] By performing sigmoidal regression on the derived absorbance curves, half-maximal effective concentration (EC₅₀) values of each VHH were acquired, representing the required concentration to occupy 50% of the coated antigen. As a negative control, GBP was included in the assay.

[2] = target: T2, recombinant human domain 1-3His6 of the cation-independent mannose-6-phosphate receptor (human, UniProt P11717 41-467); experiment: BLI exp 2, dissoc pH 7.4
T2 construct: Biotinylated (NHS-PEG4-biotin) for BLI; Glycosylated; also called hDom1-3His6; hCI-M6PRD1-D3
Protocol: (§1) For each of the 11 anti-CI-M6PR VHHs, a biolayer interferometry (BLI) experiment was performed in which the hDom₁₋₃His₆ was biotinylated and coupled to streptavidin biosensor tips. Afterwards, the tips were incubated with serially diluted VHHs during the association phase and dissociation was performed at pH 7.4. Similarly, dissociation was performed at pH 7.0, pH 6.0 and pH 5.0 as well after regeneration of the biosensor tips. […] The anti-CI-M6PR antibody (clone 2G11) and GBP were used as positive and negative controls, respectively.
(§2) Analysis of the binding kinetics was performed using an Octet Red96 (FortéBio) device with Streptavidin SA Biosensor tips (VWR 733-2145). Therefore, 1 mL of human domain₁₋₃His₆ (0.5 mg/mL in 50 mM MES, 150 mM NaCl, pH 6.5) was incubated at room temperature for 30 minutes with EZ-Link™ NHS-PEG4-Biotin (1 mg) (Thermo Fischer A39259) and NaHCO₃ (100 mM). Biotinylated human domain₁₋₃His₆ was purified using a Zeba spin desalting Column™ (7K MWCO, 2 mL, Thermo Fischer 89890) and 1 μg/mL was used for immobilization on the Streptavidin SA Biosensor tips. The loaded tips were dipped into a particular anti-CI-M6PR VHH solution, serially diluted in kinetics buffer (0.2M NaH₂PO₄, 0.1M Na⁺ citrate, 0.01% BSA, 0.002% Tween20, pH 7.4). This was followed by dissociation of the particular anti-CI-M6PR VHH in kinetics buffer of pH 7.4, followed by regeneration in Glycine (10 mM, pH 3) and neutralisation. Same cycle was repeated but the dissociation was performed at pH 7.0, 6.0, 5.0, 4.5 and 4.0. A reference well and reference sensors were subtracted from ligand sensors afterwards and Savitsky-Golay filtering was applied on the data. Fitting of the data was performed using a 1:1 model, grouped per pH of dissociation.

[3] = target: T2, recombinant human domain 1-3His6 of the …; experiment: BLI exp 2, dissoc pH 5
Protocol: as §1
Analysis of the binding kinetics was performed using an Octet Red96 (FortéBio) device with Streptavidin SA Biosensor tips (VWR, 733-2145). To this end, 1 mL of hCI-M6PR_D1-D3 (0.5 mg/mL in 50 mM MES, 150 mM NaCl, pH 6.5) was incubated at room temperature for 30 minutes with a two-fold molar excesses of EZ-Link™ NHS-PEG₄-Biotin (Thermo Fischer, A39259) and NaHCO₃ (100 mM, pH 8.3). Biotinylated hCIMPR_D1-D3 was purified using a Zeba spin desalting column (Thermo Fischer, 89890) and protein concentration was calculated by measuring the absorbance at 280 nm (extinction coefficient 50320 M¹ cm⁻¹). Two-fold biotin-labelled antigen was loaded on the tips (2.5 μg/mL) and subsequently dipped into a particular anti-CI-M6PR VHH-containing solution (ranging from 0-100 nM). Serial VHH dilutions were made in kinetics buffer (0.2 M Na₂HPO₄, 0.1 M Na⁺ citrate, 0.01% BSA, 0.002% Tween20, pH 7.4). After association (100 sec), dissociation was conducted (500 sec) for each anti-CI-M6PR VHH in the kinetics buffer, followed by biosensor regeneration in glycine (10 mM, pH 3) and neutralisation. The same cycle was repeated with dissociation performed in kinetics buffer of pH 7.0, 6.5, 6.0, 5.5, and 5.0.
A reference well and reference sensors were subtracted from ligand sensors afterwards and Savitsky-Golay filtering was applied on the data. Fitting of the data was performed using a 1:1 model, grouped per dissociation pH.

[4] = target: T2, recombinant human domain 1-3His6 of the …; experiment: BLI exp 2, dissoc pH 7
[5] = target: T2, recombinant human domain 1-3His6 of the …; experiment: BLI exp 1, dissoc pH 5
Protocol: as §1, §2

[6] = target: T2, recombinant human domain 1-3His6 of the …; experiment: BLI exp 1, dissoc pH 6
Protocol: as §1, §2

[7] = target: T2, recombinant human domain 1-3His6 of the …; experiment: BLI at pH 7.4, 1st of 2 repeats
Protocol: as §1, §2

T1 sequence (Q07113 other isoform, or with tags, fused parts or gaps): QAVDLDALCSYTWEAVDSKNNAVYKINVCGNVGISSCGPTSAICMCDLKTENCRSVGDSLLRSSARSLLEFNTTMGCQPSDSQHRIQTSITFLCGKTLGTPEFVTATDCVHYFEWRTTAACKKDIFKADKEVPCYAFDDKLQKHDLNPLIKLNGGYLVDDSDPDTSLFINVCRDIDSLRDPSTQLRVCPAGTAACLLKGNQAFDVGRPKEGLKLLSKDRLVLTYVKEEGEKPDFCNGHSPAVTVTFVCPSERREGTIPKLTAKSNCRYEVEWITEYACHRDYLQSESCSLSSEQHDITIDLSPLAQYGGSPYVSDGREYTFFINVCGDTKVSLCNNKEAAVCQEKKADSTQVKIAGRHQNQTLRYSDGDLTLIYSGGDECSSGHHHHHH

EC50 [1]: 330 nM
Kd [2]: 51 nM
koff [2]: 0.00391 s⁻¹
kon [2]: 76700 M⁻¹ s⁻¹
koff [3]: 0.0253 s⁻¹
kon [3]: 225000 M⁻¹ s⁻¹
koff [4]: 0.00394 s⁻¹
kon [4]: 194000 M⁻¹ s⁻¹
Kd [5]: 113 nM
koff [5]: 0.0253 s⁻¹
kon [5]: 225000 M⁻¹ s⁻¹
Kd [6]: 34.2 nM
koff [6]: 0.00665 s⁻¹
kon [6]: 195000 M⁻¹ s⁻¹
Kd [7]: 41.4 nM
koff [7]: 0.00317 s⁻¹
kon [7]: 76700 M⁻¹ s⁻¹
B1: anti-CI-M6PR VHH11 (VHH)
VHH: QVQLQESGGGLVQAGDSLKLSCTASGPTFSEITGGWFRQVPGKEREFVASISSTGITTYYTDSVKGRFTVSRDNAKNTMYLQMNSLKPEDTGVYYCAARSTSRSIAITVGYDYWGQGTQVTVSS
notes: His6-tagged; made in Pichia pastoris
